Measured values as given in patent publication US20100158968A1 (published 2010).
Read-outs that look alike come from different tables or passages of the source.

What was measured:
[1] = target: T1, mitogen-activated protein kinase-activated protein kinase 2 (human MK2) (human, UniProt P49137 46-400); test: kinase inhibition, radiometric assay
[2] = target: T1, mitogen-activated protein …; test: kinase inhibition, radiometric assay; remark: listed apart in the source

T1 sequence (P49137 46-400): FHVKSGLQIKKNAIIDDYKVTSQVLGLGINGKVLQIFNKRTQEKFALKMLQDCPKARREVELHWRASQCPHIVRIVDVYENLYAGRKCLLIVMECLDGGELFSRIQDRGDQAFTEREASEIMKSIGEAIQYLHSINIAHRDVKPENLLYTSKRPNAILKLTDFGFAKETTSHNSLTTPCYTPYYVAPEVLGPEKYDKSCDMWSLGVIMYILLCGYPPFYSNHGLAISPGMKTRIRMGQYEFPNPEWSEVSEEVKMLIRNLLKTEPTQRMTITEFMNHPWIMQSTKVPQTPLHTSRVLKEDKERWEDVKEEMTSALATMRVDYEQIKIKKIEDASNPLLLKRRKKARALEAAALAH

Row | Binder | IC50 [1] | IC50 [2]
1 | KKKALNRQLGVAA | 31.2 µM | 
2 | YARAAARQARA | > 1000 µM | 
3 | KAFAKLAARLYRKALARQLGVAA |  | 4.43 µM
